# According to US20110093983A1, “ALGAL GLYCEROL-3 PHOSPHATE ACYLTRANSFERASE” (National Research Council of Canada, priority 2008, published 2011):
# Entries after “also recorded” stand apart in the source; their conditions may differ.
# B1: TpGPAT1: membrane-bound glycerol-3-phosphate acyltransferase from T. pseudonana, 674 amino acids, SEQ ID NO:2 (nucleotide SEQ ID NO:1) (protein, listed as Thalassiosira pseudonana)
# chain: MGVEKKGTMMSELDYTKAQLAFFYIVVLLSLDMLNPVKIFLHVFPAIKSWHIATFAIACMSYIFIVNLRELLYFATKVFFHSILSIFFNDVTVVGRENIPSHGPVIFTSNHANQFMDGLMIMCTCQRTISYLVADKSWNRPIIGHLAWMMGGVPVKRAQDSACKGTGKISIDLNALAGSDAVINVVGKGTSFTSQIKAGDKIRLPNNAIGIKVESIESDESMSLKVEDGVAEVLSSHPFPEYVTYDILPRIDQKDVYQNVLEKLASGGTIGIFPEGGSHDRTDLLPLKVGVALIAYSELEKDGINVPIVPVGLNYFRAHRFRGKATVEFGSPTYIEPSTLADYKKGGADKRRVCNDLLARIENSMRSVIVSVPDFETLQTIHAARRLYRQDGRNETAEQRQDMGRRFAEGYKRVLLQLGGEPPEEWLSLQSRILAYQKELNELGIRDYQVVGLDHEEVELGSESQGHSKADTVLHRMNVFGHIVHLFVIAVLAALPAMLLNLPVGLASRIYSNRRRKVALAASKVKVKGYDVMLSERVLACIVLVPSLWVVYGLLLSLFTSLDGPSLAVCFTCFPLFSYWSIMATESGMVDIKDLRPYVMRMIPSARRRLAALPATRKALRSDLRAMIKKIGPSLGDIYYEKDLNWQKIQMETKRMSMEELDPAQKDEAAKKEE
# Columns and labels:
# Brassica napus = assay: Fatty acid analysis of T1 seeds from TpGPAT transgenic Brassica napus; assay type: in vivo; details: 5 transgenic Brassica napus events; wild-type 4.27-4.64%
# Procedure: FIG. 6 graphically depicts the results of the analysis of the fatty acid 16:0 content of T1 seeds from TpGPAT transgenic Brassica napus. Fatty acid analysis was performed on TpGPAT transformed B. napus seeds. Fatty acid composition (as molar percentage) was determined in the seed oil extracted from T1 seeds of five independent TpGPAT:pSE transformed Brassica napus events (GPAT1, 3, 4, 7 and 12). Wild-type B. napus was used as a control.
# The full length coding region of the TpGPAT gene was amplified using pfu DNA polymerase and primers designed with two restriction sites (KpnI and XbaI) added for subsequent cloning. Then, the PCR product was digested and inserted in a plant transformation vector (pSE129A) under the control of a seed-specific promoter (Napin). The binary vector was introduced by electroporation into Agrobacterium tumefaciens strain GV3101 containing helper plasmid pMP90 (Koncz and Schell, 1986).
# Brassica napus 5-day-old hypocotyls were also transformed with Agrobacterium containing the TpGPAT/pSE129A construct. Transgenic T0 plants were regenerated, selected for resistance to kanamycin and grown in soil. Individual plants were bagged to allow self-pollination. Presence of the TpGPAT and Kan genes in the resistant plants was verified by PCR with the appropriate primers in 18 independent events. T1 seeds from the first set of 5 transgenic events were harvested and analyzed. […]
# [1] = GPAT activity assay of microsomal membrane fractions from yeast gat1 mutant expressing TpGPAT; assay type: biochemical, Saccharomyces cerevisiae
# Procedure: FIG. 2 depicts GPAT activity of TpGPAT1 expressed in yeast gat1 mutant. The microsomal membrane fractions prepared from lysates of the induced yeast cells harboring TpGPAT1 or empty vector pYES2.1 were assayed for GPAT activity with 400 μM [^14C]glycerol 3-phosphate (2.5 nCi/nmol), 45 μM palmitoyl-CoA, 75 mM Tris-HCl, pH 7.5, 1 mM DTT, and 2 mM MgCl2 for 10 min at room temperature. After extraction of the phospholipid products, the radioactivity was measured by scintillation count.
# FIG. 3 depicts substrate specificity of TpGPAT1. The microsomal membrane fractions prepared from lysates of the induced yeast cells harboring TpGPAT1 or empty vector pYES2.1 were assayed for GPAT activity with 400 μM [^14C]glycerol 3-phosphate (2.5 nCi/nmol) and different acyl-CoAs as acyl donor. After extraction of the phospholipid products, the radioactivity was measured by scintillation count. […]
# Enzyme Assays: GPAT assays were conducted at 30° C. for 10 min. in a 200-pL reaction mixture containing 40 mM Hepes, pH 7.0, 400 pM ^14C-glycerol-3-phosphate (2.5 nCi/nmol), 67.5 pM palmitoyl-CoA and/or stearoyl-CoA or other fatty acyl donors, 1 mM DTT, 2 mM MgCl2, and 2.5 mg/mL BSA unless stated otherwise. […] The formed products were subjected to scintillation counting for radioactivity and thin layer chromatography analysis as described. […]
# yeast gat1 mutant = assay: Incorporation of fed EPA or DHA into TAGs and phospholipids of yeast gat1 mutant; assay type: cell-based, Saccharomyces cerevisiae; details: for mol % of FA in Phospholipids, DHA / mol % of FA in Phospholipids, EPA / mol % of FA in TAGS, DHA / mol % of FA in TAGS, EPA: 3-day induction
# Procedure: Yeast cultures were grown at 28° C. in the presence of 2% (w/v) glucose and 1% (w/v) Tergitol NP-40 (Sigma, St. Louis, Mo., US). Expression of the transgene was induced at OD600 nm 0.2 to 0.3 by supplementing galactose to 2% (w/v). At that time, the appropriate FAs were added to a final concentration of 50 or 100 μM in the presence of 1% (w/v) Tergitol NP-40 (Sigma, St. Louis, Mo., US). Yeast cells (20 ml) were harvested after a 3-day incubation, total lipids from yeast homogenates were extracted using the procedure of Schneiter (2005). Separation of neutral lipids and polar lipids was performed by running the thin layer chromatography plates (Si 250-PA, Baker, Phillipsburg, N.J.) in a developing solvent of hexane: ether: acetic acid (70:30:1, v/v) and identified by co-migration with known standards. Spots corresponding to TAG and phospholipid were scraped off the TLC plates and were transmethylated with methanolic HCl and quantified by gas chromatography as described previously. (Zheng and Zou, 2001).
# Yeast gat1 strain transformed with TpGPAT or empty vector pYES2.1 was grown in the presence of EPA or DHA, while being induced by galactose. Triacylglycerols (TAGS) and phospholipids from the 3-day culture were extracted and analyzed by gas chromatography for fatty acid composition. […] It was not clear if this were due to the low GPAT activity for these VLCPUFAs or the lack of EPA and DHA-CoA in the cells.
molecule,measurement,setting,value
B1,16:0 percentage in T1 seeds,Brassica napus,4.64-6.67%
same,Substrate specificity for fatty acyl donors,"[1]; different acyl-CoAs as acyl donors (14:0, 16:0, 16:1, 18:0, 18:1, 22:6)",highly specific for 16:0; also recorded: highest activity toward 16:0; also recorded: highly specific for saturated C16 fatty acids
same,GPAT activity versus control cells transformed with empty pYES2.1 vector,"[1]; microsomal membrane fractions, yeast gat1, palmitoyl (16:0)-CoA as acyl donor",about seven
same,"mol % of FA in Phospholipids, DHA",yeast gat1 mutant; feeding concentration 50 μM,0.22 ± 0.03 mol %
same,"mol % of FA in Phospholipids, EPA",yeast gat1 mutant; feeding concentration 50 μM,0.42 ± 0.01 mol %
same,"mol % of FA in TAGS, DHA",yeast gat1 mutant; feeding concentration 50 μM,0.70 ± 0.06 mol %
same,"mol % of FA in TAGS, EPA",yeast gat1 mutant; feeding concentration 50 μM,1.18 mol %
same,"mol % of FA in Phospholipids, DHA",yeast gat1 mutant; feeding concentration 100 μM,0.34 ± 0.02 mol %
same,"mol % of FA in Phospholipids, EPA",yeast gat1 mutant; feeding concentration 100 μM,0.85 ± 0.15 mol %
same,"mol % of FA in TAGS, DHA",yeast gat1 mutant; feeding concentration 100 μM,1.10 ± 0.07 mol %
same,"mol % of FA in TAGS, EPA",yeast gat1 mutant; feeding concentration 100 μM,3.38 ± 0.78 mol %
same,Impact on incorporation of LCPUFAs into TAG or phospholipids compared to empty vector control,"yeast gat1 mutant; yeast gat1 grown in presence of EPA or DHA, 3-day culture",did not have much impact
